Laboratory results taken from the domain aggregation screens of Martell et al. (2025).

Assay: soluble fraction after stress (log2 fold change); higher = more stays soluble; pooled small domains, quantitative proteomics
Details: stress: 75 degC
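Note: 20 min heating vs room temperature control held 20 min.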

Row | Sequence | soluble fraction (log2)
1 | HMGTHPGIDSGIISDILALKKELPTRSAAKIITMLTLAGKMEENSIHVKTVNRILYQYGYTRDTLS | -1.92
2 | HMGTITKRTNPSGAVVWRAQIRINKADMPTYSESKTFSKKSLATEWLKRREAEIEANPDLIL | -0.929
3 | HMGTKDVNAAPSAVGRTYDEAIEILNGYKAGYLEEYSDTVPKGTVISQSVQDGQVVIVVSLGPKPS | -0.136
4 | HMGTKVGAPLPGTITEVKVKVGDTVKAGDAVIILEAMKMQNNIEAEVSGTVSSVLVKEGDTVMEGDALITI | -0.0573
5 | HMGTLNLSQAYREWGMAEIEANRDYYGPVRFDDIAFQMSPAGQQLQARFVASYADRLHDAIEGEL | -0.364
6 | HMGTLRPKGTVVFANLPIAADAKEGDMYNISDQFTTTASFKEGAGNVIPAGSNVYRTDDGFWDVL | 0.783
7 | HMGTPEQSAQFEQVLEELKNVPGPVMKAMQRAQDIYGYLPIEIQSRIGQAFGVSLEEVYGIATFYSQFNL | -2.55
8 | HMGTQKVQVVNGPINVRSGPGPTFEKIGMVEDQAVYQVVSKKDDWFQISLPGNKTAWVAGWLVKEIK | -0.035
9 | HMGTRHPLPYAFAKAHTVLLEDDGDRLLLHAAENSGPSALGEILRLYDVDALERETASTLANRIAVAYAG | 0.175
10 | HMGTSGLTIPRFVSLASGTVHMRAGPGVRYPITWIYKRLGTPLMVMAEHEFWRKVRDAEGTEGWMHRSLLS | 0.0559
11 | HMGTSIMIIIVKPETKKERVNDLIHWIESQNLRTHLSTGDYSTIIGVIGDTSKLDSELIRGLDIVENVKRV | -2.18
12 | HMGTSMDPPVIIVSDGKLIQKGLEVSGLKKQWLYDLIDRKHMKISDIFLLTADKTGKYNLIKRS | -0.0253
13 | HMGTSQSAVKAILAQLISDENKQKPYSDEALSRLLQQQGIDIARRTVAKYREALNIPPAHQRK | 0.26
14 | HMGTSRVQSILFDQSQWTINRAVHWLNTHHFISTKIDKTDKYLRFRQFDPNPDSHHATKRTSQGITFILE | -4.37
15 | HMGTTIAMSKLKQVLRWKEEGYSNRKIAQLVGLNKETVNNYISRANADSLSQKELLQLDDFVLDIRLRG | -1.76
16 | HMGTTTGKVNATGVNFRTGPSTSYSSMGKLGIDTAVTILGKSGDWYQVKVNSTGKTGYVFAKYITITSVV | -1.95
17 | HMGTVIGMGRITAGGVNFRETEGGGVIEKLERDTLVEVLTVPSVIDTTHWYQVRYNNRTGYVQAPFVQLLG | -1.7
18 | HMGTVKWFNATKGFGFIVPSDGGKDVFVHITAVQKAGLQGLNEGQKVSYEVAMERGKAAATNLR | -0.782
19 | HMGTVRFYNKERGFGFVVSDDGESVFLPAKALPDGVSDLSPGTRVDYGAALGKKGSQ | 0.0973
20 | HMGVAAPMPGTITDVRVKVGDRVQPRTVVMMLEAMKMENEIFAGRAGVVSQVAVEKGASVNTGDLLISIDP | -0.311
21 | HMGVAASEVHREKKESSLQWRQSYNVATDQRRQGKTYKEITEFLNGAELKNSKGGTWSISGVRKMLM | 0.0165
22 | HMGVARGQAQVTTRQHVVQPGETLYQISKQYGVTVAEILRYNADIEDNTVKVGQTLQIPTPLP | ≥ 1.04
23 | HMGVDMAPESIVGKKGVAATELRPAGKVEIHGQVYDAVSVGMFIKRGTGVKVVRYEAAQIYVEPE | -0.544
24 | HMGVEALTPRQREVLALMAQGRSNGWIAAELGLSEKAIVQHTSNIYDMLGLAVDADDHRRVLAVIHYLT | -1.19
25 | HMGVENDGYVLPRELKKGDTVLIADLGKEATVLSPVDRNGNVEVLAGAAKTRVKLKNLRLIE | 0.0345
26 | HMGVEVPRGDGSTVVRVRAGSSLADFAERIGADPAALITVLFRMGEMATVNQSLDEDTFKLLGAELGYDVQ | -0.704
27 | HMGVGIAEAMKHVADEDYGDLSSEFQRIFSAVDGGSTLGDAVRAQMRATSSAGLRRTLSVLAMSVE | 0.553
28 | HMGVGTTDERLAVLNQIASRQTEALEKLGPNNPLVGLGQIRNTLSKMLEISGYPDSNQFFKQVPLDYEPPP | 0.156
29 | HMGVIDTLSGPQKAAAILVAIGRPSASRLLKHFNAEDLRKLAGHARTLEPISPLDFEHLVKQFEDSFAEG | -0.874
30 | HMGVIGADIRALRVSRGWTLSDLAEALDRSVGWLSQVERDVSEPALADIRRIAGIFDLPVSFFFSD | -2.64
